Experimental data: patent US5459256A, “Lipophilic, aminohydrolase-activated prodrugs” (priority 1991, dated 1995)

Tests used:
[1] = test system: HIV-1/IIIB (CD4^+ ATH8 cells); assay: HIV cytopathic effect inhibition assay in ATH8 cells (% protection); assay type: cell-based; settings: additive alone, no test compound
Experimental: (§1) HIV Cytopathic Effect Inhibition Assay.
The HIV cytopathic effect inhibition assay was performed as previously described. (Mitsuya, H. & Broder, S. Proc. Nat. Acad. Sci. USA 1986, 83, 1911) Briefly, 200,000 target CD4^+ ATH8 cells were exposed to cell-free HIV-1/IIIB at a dose of 43 (or 1087 for compound 1g) TCID50 (50% tissue culture infectious dose) for 1 h, resuspended in 2 ml of fresh culture media containing interleukin 2, and cultured at 37° C. with or without test compounds in 5% CO2 -containing humidified air. On day 8 in culture, the viable cells were counted by using the dye exclusion method. All compounds, including inactives, were evaluated a minimum of two times in separate experiments. […] The % protection against the virus was determined by the following formula: 100 times [(the number of viable cells exposed to HIV-1 and cultured in the presence of the compound minus the number of viable cells exposed to HIV-1 and cultured in the absence of compound) divided by (the number of viable cells cultured alone minus the number of viable cells exposed to HIV-1 and cultured in the absence of the compound)]. The % toxicity of a compound on the target cells was determined by the following formula: 100 times [1 minus (the number of total viable cells cultured in the presence of the compound divided by the number of total viable cells cultured alone)]. […]

CD4^+ ATH8 cells = assay: Toxicity on ATH8 target cells (% toxicity, dye exclusion); assay type: cell-based; settings: additive alone, no test compound
Experimental: as §1
The HIV cytopathic effect inhibition assay was performed as previously described. […] On day 8 in culture, the viable cells were counted by using the dye exclusion method. All compounds, including inactives, were evaluated a minimum of two times in separate experiments. Data reported in Table II are from representative tests. The % protection against the virus was determined by the following formula: 100 times [(the number of viable cells exposed to HIV-1 and cultured in the presence of the compound minus the number of viable cells exposed to HIV-1 and cultured in the absence of compound) divided by (the number of viable cells cultured alone minus the number of viable cells exposed to HIV-1 and cultured in the absence of the compound)]. The % toxicity of a compound on the target cells was determined by the following formula: 100 times [1 minus (the number of total viable cells cultured in the presence of the compound divided by the number of total viable cells cultured alone)]. Calculated percentages equal to or less than zero are expressed as 0%.

B1: ADA: adenosine deaminase (adenosine aminohydrolase, EC 3.5.4.4) from calf intestinal mucosa (protein, UniProt P56658 2-363, looked up)
Adenosine deaminase: AQTPAFNKPKVELHVHLDGAIKPETILYYGRKRGIALPADTPEELQNIIGMDKPLSLPEFLAKFDYYMPAIAGCREAVKRIAYEFVEMKAKDGVVYVEVRYSPHLLANSKVEPIPWNQAEGDLTPDEVVSLVNQGLQEGERDFGVKVRSILCCMRHQPSWSSEVVELCKKYREQTVVAIDLAGDETIEGSSLFPGHVKAYAEAVKSGVHRTVHAGEVGSANVVKEAVDTLKTERLGHGYHTLEDATLYNRLRQENMHFEVCPWSSYLTGAWKPDTEHPVVRFKNDQVNYSLNTDDPLIFKSTLDTDYQMTKNEMGFTEEEFKRLNINAAKSSFLPEDEKKELLDLLYKAYGMPSPASAEQCL
[1]
  protection by additive alone (in words): neither influenced the viability nor protected infected ATH8 cells
CD4^+ ATH8 cells
  toxicity / viability effect of additive alone (in words): neither influenced the viability
